In US20240409635A1 (VIBRANT PHARMA, published 2024):

Legend:
[1] = target: epidermal growth factor receptor (EGFR) on human tumor cells (human, UniProt P00533 25-1210); assay: cell-based or functional assay
[2] = target: T1, recombinant human CD3ε/δ protein (ACRO systems, CDD-H52W1) (human, UniProt P07766 23-126; P04234 22-105); assay: BLI, antibody captured on AHC sensor
T1 construct: Bought reagent
Description: (§1) Antibodies were first captured onto an anti-human IgG Fc coated AHC biosensor (Anti-hIgG Fc, Sartorius, 18-5060). Antibodies were diluted to 5 μg/mL and 1.5 nm protein was coupled to the AHC sensor surface in 0.02% PBST.
(§2) After the sensor captures the antibodies, it is used to bind and dissociate with different concentrations of analytes to obtain the KD value of the interaction. The experimental parameters are as follows: Baseline1: 60 s, Loading: 240 s, Baseline2: 180 s, Association: 240 s, Dissociation: 600 s, High sensitivity kinetics: 2 Hz. Kinetic constants were derived based on the rate equation for 1:1 Langmuir binding to obtain equilibrium dissociation constants (KD). The Data Analysis HT 12 software (Sartorius, 50-5029) was used to simultaneously fit binding and dissociation curves to calculate Kₒₙ, and Koff. The affinity KD was calculated based on the below formula: KD=Koff/Kₒₙ.

[3] = target: T2, recombinant human EGFR protein (ACRO systems, EGR-H5222) (human, UniProt P00533 25-645); assay: BLI, antibody captured on AHC sensor
T2 construct: Bought reagent
Description: as §1, §2

[4] = target: T3, recombinant human c-Met protein (human, UniProt P08581 25-932); assay: BLI, antibody on AHC sensor
T3 construct: Bought
Description: as §1
as §2, with “Kₒₙ” for “Kₒₙ,”

[5] = target: T4, Insulin; assay: ELISA, insulin coated, 100 nM antibody
T4 construct: Bought reagent, coated at 5 ug/mL
Description: (§3) The experimental steps are as follows [0420] […] (4) 50 μl anti-human IgG-HRP conjugate (Sigma, AP113P, 1:8000 dilution) was added to each well; the plate was incubated for 1 h at room temperature and washed 6 times with 0.05% PBST; [0424] (5) 50 μl of TMB chromogenic solution (Biopanda, TMB-S-001) was added to each well and incubated at room temperature for 10-15 minutes for color development; [0425] (6) 50 μl of 1M HCl was added to each well to stop the color development, and the absorbance at 450 nm was measured using a microplate reader (Biotek, SYNERGY LX); Data analysis: If the ratio between the absorbance of the antibody and the absorbance of the blank control PBS is ≥3, there is too much non-specific binding.

[6] = target: T5, keyhole limpet haemocyanin; assay: ELISA, KLH coated, 100 nM antibody
T5 construct: Bought reagent, coated at 5 ug/mL; also called KLH
Description: as §3

[7] = target: T6, recombinant human CD3ε/δ protein (human, UniProt P07766 23-126; P04234 22-105); assay: BLI, antibody on AHC sensor
T6 construct: Bought heterodimer
Description: as §1
as §2, with “Kₒₙ” for “Kₒₙ,”

[8] = target: T7, recombinant human EGFR protein (human, UniProt P00533 25-645); assay: BLI, antibody on AHC sensor
T7 construct: Bought
Description: as §1
as §2, with “Kₒₙ” for “Kₒₙ,”

T3 sequence (P08581 25-932 limits assumed): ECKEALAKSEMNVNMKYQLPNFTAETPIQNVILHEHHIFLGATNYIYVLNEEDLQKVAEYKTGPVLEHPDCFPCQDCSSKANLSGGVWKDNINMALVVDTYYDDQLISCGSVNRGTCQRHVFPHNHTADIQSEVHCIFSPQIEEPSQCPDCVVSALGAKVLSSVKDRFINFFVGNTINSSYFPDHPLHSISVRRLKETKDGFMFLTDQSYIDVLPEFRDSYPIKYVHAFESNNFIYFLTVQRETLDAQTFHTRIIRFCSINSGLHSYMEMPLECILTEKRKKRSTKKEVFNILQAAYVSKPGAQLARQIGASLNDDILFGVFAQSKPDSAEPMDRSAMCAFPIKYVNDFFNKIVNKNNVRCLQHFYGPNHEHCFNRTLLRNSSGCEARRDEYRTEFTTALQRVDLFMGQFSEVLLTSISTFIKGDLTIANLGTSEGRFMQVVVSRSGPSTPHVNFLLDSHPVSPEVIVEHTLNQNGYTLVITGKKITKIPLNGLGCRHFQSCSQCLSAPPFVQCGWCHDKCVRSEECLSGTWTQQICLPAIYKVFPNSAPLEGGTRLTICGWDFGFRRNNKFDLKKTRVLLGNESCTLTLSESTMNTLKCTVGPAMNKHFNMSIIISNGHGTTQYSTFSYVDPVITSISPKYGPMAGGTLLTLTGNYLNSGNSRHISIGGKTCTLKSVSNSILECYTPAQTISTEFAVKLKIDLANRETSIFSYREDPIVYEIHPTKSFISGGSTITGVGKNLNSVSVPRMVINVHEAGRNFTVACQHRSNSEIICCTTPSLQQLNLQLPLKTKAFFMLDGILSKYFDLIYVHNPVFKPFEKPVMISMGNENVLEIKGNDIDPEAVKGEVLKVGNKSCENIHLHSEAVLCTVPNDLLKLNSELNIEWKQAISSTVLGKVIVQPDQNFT
T6 sequence (P07766 23-126, stated change not applied, chain 1 of 2): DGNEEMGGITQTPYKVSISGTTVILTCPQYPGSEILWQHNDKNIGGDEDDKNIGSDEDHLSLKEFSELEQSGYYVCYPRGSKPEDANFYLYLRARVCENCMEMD
T6 sequence (P04234 22-105, stated change not applied, chain 2 of 2): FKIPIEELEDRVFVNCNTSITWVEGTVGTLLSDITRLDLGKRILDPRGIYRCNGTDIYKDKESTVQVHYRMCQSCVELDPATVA
T1 sequence (P07766 23-126, stated change not applied, chain 1 of 2): as the sequence (P07766 23-126, stated change not applied, chain 1 of 2) above
T1 sequence (P04234 22-105, stated change not applied, chain 2 of 2): as the sequence (P04234 22-105, stated change not applied, chain 2 of 2) above

B1: EGFR-BsAb bispecific control antibody (TA1-Fab CD3 x EGFR VHH) (bispecific antibody, human IgG4 S228P, kappa, F234A L235A)
heavy: EVKLLESGGGLVQPKGSLKLSCAASGFTFNTYAMNWVRQAPGKGLEWVARIRSKYNNYATYYADSVKDRFTISRDDSQSILYLQMNNLKTEDTAMYYCVRHGNFGNSYVSWFAYWGQGTLVTVSSASTKGPSVFPLAPCSRSTSESTAALGCLVKDYFPEPVTVSWNSGALTSGVHTFPAVLQSSGLYSLSSVVTVPSSSLGTKTYTCNVDHKPSNTKVDKRVESKYGPPCPPCPAPEAAGGPSVFLFPPKPKDTLMISRTPEVTCVVVDVSQEDPEVQFNWYVDGVEVHNAKTKPREEQFNSTYRVVSVLTVLHQDWLNGKEYKCKVSNKGLPSSIEKTISKAKGQPREPQVYTLPPCQEEMTKNQVSLWCLVKGFYPSDIAVEWESNGQPENNYKTTPPVLDSDGSFFLYSRLTVDKSRWQEGNVFSCSVMHEALHNHYTQKSLSLSL
chain: QVQLQESGGGSVQAGGSLKLSCAASGRGFSRYAMGWFRQAPGQDREFVATISWTNSTDYADSVKGRFAISRDNAKNTAYLQMNSLKPEDTAVYYCAADKWASSTRSIDYDYWGQGIQVTVSSESKYGPPCPPCPAPEAAGGPSVFLFPPKPKDTLMISRTPEVTCVVVDVSQEDPEVQFNWYVDGVEVHNAKTKPREEQFNSTYRVVSVLTVLHQDWLNGKEYKCKVSNKGLPSSIEKTISKAKGQPREPQVCTLPPSQEEMTKNQVSLSCAVKGFYPSDIAVEWESNGQPENNYKTTPPVLDSDGSFFLVSRLTVDKSRWQEGNVFSCSVMHEALHNRFTQKSLSLSL
light: QAVVTQESALTTSPGETVTLTCRSSTGAVTTSNYANWVQEKPDHLFTGLIGGTNKRAPGVPARFSGSLIGDKAALTITGAQTEDEAIYFCALWYSNLWVFGGGTKVEIKRTVAAPSVFIFPPSDEQLKSGTASVVCLLNNFYPREAKVQWKVDNALQSGNSQESVTEQDSKDSTYSLSSTLTLSKADYEKHKVYACEVTHQGLSSPVTKSFNRGEC
notes: also called anti-EGFR-BsAb
killing EC50, NCI-H157 cells (EGFR-positive) [1]: 0.02 nM
killing EC50, NCI-H1299 cells (EGFR-positive) [1]: 0.0318 nM
killing EC50, NCI-H1395 cells (EGFR-positive) [1]: 0.0108 nM
Kd [2]: 9.03 nM
koff [2]: 0.000748 s⁻¹
kon [2]: 82900 M⁻¹ s⁻¹
Kd [3]: 9.85 nM
koff [3]: 0.00305 s⁻¹
kon [3]: 309000 M⁻¹ s⁻¹

B2: c-Met-BsAb bispecific control antibody (TA1F anti-CD3 Fab x c-Met VHH) (bispecific antibody, IgG4, not shown: a dimerising Fc or GST)
heavy: EVKLLESGGGLVQPKGSLKLSCAASGFTFNTYAMNWVRQAPGKGLEWVARIRSKYNNYATYYADSVKDRFTISRDDSQSILYLQMNNLKTEDTAMYYCVRHGNFGNSYVSWFAYWGQGTLVTVSSASTKGPSVFPLAPCSRSTSESTAALGCLVKDYFPEPVTVSWNSGALTSGVHTFPAVLQSSGLYSLSSVVTVPSSSLGTKTYTCNVDHKPSNTKVDKRV
chain: QVKLEESGGDLVQPGGSLRLSCVGSGSIFSYTAMGWYRQAPGKQRELVATIHSGGNINYADSVKGRFTISRDNTENTVYLQMNSLKPEDTAVYYCWSLLVGPETRYKDFNFWGRGTQVTVSS
light: B1 light
notes: the text gives VH-CH1-Hinge-Fc (IgG4) and VL-CL (kappa)
Kd [4]: 0.523 nM
koff [4]: 0.000367 s⁻¹
kon [4]: 702000 M⁻¹ s⁻¹

B3: CEA-CAM6-BsAb bispecific control antibody (TA1-Fab anti-CD3 x CEA-CAM6 VHH) (bispecific antibody, human IgG4 S228P, kappa, F234A L235A)
heavy: B1 heavy
chain: QVKLEESGGGLVQAGGSLRLSCRTSGRTNSVYTMGWFRQAPGKEREFVAQIMWGAGTNTHYADSVKGRFTISRDSAESTVYLQMNSLKPEDTAVYYCAANRGIPIAGRQYDYWGQGTQVTVSSESKYGPPCPPCPAPEAAGGPSVFLFPPKPKDTLMISRTPEVTCVVVDVSQEDPEVQFNWYVDGVEVHNAKTKPREEQFNSTYRVVSVLTVLHQDWLNGKEYKCKVSNKGLPSSIEKTISKAKGQPREPQVCTLPPSQEEMTKNQVSLSCAVKGFYPSDIAVEWESNGQPENNYKTTPPVLDSDGSFFLVSRLTVDKSRWQEGNVFSCSVMHEALHNRFTQKSLSLSL
light: B1 light
notes: IgG4
absorbance ratio to PBS blank [5]: 0.87
absorbance ratio to PBS blank [6]: 0.45

B4: EGFR-BsAb bispecific control antibody (TA1-Fab anti-CD3 x EGFR VHH) (bispecific antibody, human IgG4 S228P, kappa, F234A L235A)
heavy: B1 heavy
chain: B1 chain
light: B1 light
notes: IgG4
absorbance ratio to PBS blank [5]: 0.86
Kd [7]: 5.51 nM
koff [7]: 0.00302 s⁻¹
kon [7]: 547000 M⁻¹ s⁻¹
Kd [8]: 0.645 nM
koff [8]: 0.000401 s⁻¹
kon [8]: 622000 M⁻¹ s⁻¹
absorbance ratio to PBS blank [6]: 0.5
